Test results: patent publication US20240335558A1, “ISOLATED POLYPEPTIDE AND USE THEREOF” (GLYCO-THERAPY BIOTECHNOLOGY CO., LTD., priority 2021, published 2024)

Experiments:
Assay type in all cases: biochemical
Trastuzumab-G2F [1] = test: HpFT-4HR and HFT6 transferring GDP-FAmP4Biotin to Trastuzumab-G2F; conditions: donor GDP-FAmP4Biotin 1 mM, enzyme 0.5 mg/mL, 30° C., 6 h; FIG. 5A
[2] = system: Trastuzumab-(GalNAzβ1,4)GlcNAc; test: HpFT-4HR and HFT6 transferring GDP-FAmP4Biotin to Trastuzumab-(GalNAzβ1,4)GlcNAc; conditions: donor GDP-FAmP4Biotin 1 mM, enzyme 0.5 mg/mL, 30° C., 6 h; FIG. 5B
Protocol: Three parallels were set up for each group. After the reaction time point was reached, to the reaction solution was added 10 mM LacNA, and the reaction was terminated by a desalting column (Zeba™ Spin Desalting Columns/2 ml/40K, Thermo Fisher Scientific), and finally mass spectrometry was carried out and % of conversion was calculated. % of conversion=(MAR0 peak intensity*0+MAR1peak intensity*1+MAR2 peak intensity*2)/2* (MAR0 peak intensity+MAR1 peak intensity+MAR2 peak intensity)*100%.
Three parallels were set up for each group. After the reaction time point was reached, to the reaction solution was added 10 mM LacNAc, and the reaction was terminated by a desalting column (Zeba™ Spin Desalting Columns/2 ml/40K, Thermo Fisher Scientific), and finally mass spectrometry was carried out and % of conversion was calculated. […] For Trastuzumab-(GalNAzβ1,4)GlcNAc, % of conversion was calculated according to Example 18.

Trastuzumab-G2F [3] = test: HpFT-2HR and HpFT-4HR transferring GDP-FAmP4Biotin or GDP-FAzP4Biotin to Trastuzumab-G2F; conditions: donor 1 mM, enzyme 0.5 mg/mL, 30° C., 6 h; FIG. 6(A)
Protocol: (§1) To 40 mM Tris-HCl (pH 7.5) buffer were added Trastuzumab-G2F (2 mg/mL final), GDP-FAmP4Biotin (1 mM final), MgCl2 (20 mM final), and different HpFT enzymes (HpFT-4HR, HpFT-4HR(M4), HpFT-4HR(M7), HpFT-6HR, HpFT-3HR, HpFT-2HR, HpFT-1HR, or HpFT-0HR) (0.5 mg/mL final) in sequence, and the resulting mixed solution was allowed to react at 30° C. for 3 h. Three parallels were set up for each group. After the reaction time point was reached, to the reaction solution was added 10 mM LacNAc (N-acetyl-D-lactosamine), and the reaction was terminated by a desalting column (Zeba™ Spin Desalting Columns/2 ml/40K, Thermo Fisher Scientific), and finally mass spectrometry was carried out and % of conversion was calculated. % of conversion=(MAR0 peak intensity*0+MAR1peak intensity*1+MAR2 peak intensity*2+MAR3 peak intensity*3+MAR4 peak intensity*4)/4* (MAR0 peak intensity+MAR1 peak intensity+MAR2 peak intensity+MAR3 peak intensity+MAR4 peak intensity)*100%.
(§2) To 40 mM Tris-HCl (pH 7.5) buffer were added Trastuzumab-G2F (2 mg/mL final), GDP-FAmP4Biotin or GDP-FAzP4Biotin (1 mM final), MgCl2 (20 mM final), and HpFT-2HR or HpFT-4HR (0.5 mg/mL final) in sequence, and the resulting mixed solution was allowed to react at 30° C. for 6 h. Three parallels were set up for each group. After the reaction time point was reached, to the reaction solution was added 10 mM LacNAc, and the reaction was terminated by a desalting column (Zeba™ Spin Desalting Columns/2 ml/40K, Thermo Fisher Scientific), and finally mass spectrometry was carried out and % of conversion was calculated. % of conversion was calculated according to Example 17.

[4] = system: Trastuzumab-(GalNAzβ1,4)GlcNAc; test: HpFT-2HR and HpFT-4HR transferring GDP-FAmP4Biotin or GDP-FAzP4Biotin to Trastuzumab-(GalNAzβ1,4)GlcNAc; conditions: donor 1 mM, enzyme 0.5 mg/mL, 6 h; FIG. 6(B)
Protocol: as §1, with “added Trastuzumab-(Fucα1,6)(Galβ1,4)GlcNAc” for “added Trastuzumab-G2F”, “HpFT-2HR, HpFT-1HR” for “HpFT-2HR, HpFT-1HR,”, “for 1” for “for 3”, “mM LacNA,” for “mM LacNAc (N-acetyl-D-lactosamine),”, “peak intensity*2)/2*” for “peak intensity*2+MAR3 peak intensity*3+MAR4 peak intensity*4)/4*”, “peak” for “peak intensity+MAR3 peak intensity+MAR4 peak”
as §2, with “Trastuzumab-(GalNAzβ1,4)GlcNAc” for “Trastuzumab-G2F”, “30 t” for “30° C.”, “18.” for “17.”

B1: HpFT-4HR: reported α-1,3 fucosyltransferase (Wu P. et al.): catalytically active domain, four heptapeptide repeat sequences, C-terminus His tag (protein)
chain: MFQPLLDAFIESASIEKMVSKSPPPPLKIAVANWWGDEEIKEFKKSVLYFILSQRYAITLHQNPNESSDLVFSNPLGAARKILSYQNTKRVFYTGENESPNFNLFDYAIGFDELDFNDRYLRMPLYYAHLHYEAELVNDTTAPYKLKDNSLYALKKPSHHFKENHPNLCAVVNDESDLLKRGFASFVASNANAPMRNAFYDALNSIEPVTGGGSVRNTLGYKVGNKSEFLSQYKFNLCFENSQGYGYVTEKILDAYFSHTIPIYWGSPSVAKDFNPKSFVNVHDFNNFDEAIDYIKYLHTHPNAYLDMLYENPLNTLDGKAYFYQDLSFKKILDFFKTILENDTIYHNNPFIFYRDLHEPLISIDDLRVNYDDLRVNYDDLRVNYDDLRVNYLEHHHHHH
modifications: Catalytically active domain of Helicobacter pylori Alpha-(1,3)-fucosyltransferase (GenBank No.AAD07710.1) with 4 heptapeptide repeats and a C-terminal His tag
B1 was tested, and the “catalytic activity (% of conversion), HpFT-4HR versus HFT6” value (Trastuzumab-G2F [1]) was “much higher than that of human-derived fucosyltransferase HFT6”, the “catalytic activity (% of conversion), HpFT-4HR versus HFT6” value [2] was “much higher than that of human-derived fucosyltransferase HFT6” and the “activity in catalyzing the transfer of GDP-FAmP4Biotin relative to transfer of GDP-FAzP4Biotin” value (Trastuzumab-G2F [3]) was “significantly higher”. For the same molecule, the “activity in catalyzing the transfer of GDP-FAmP4Biotin relative to transfer of GDP-FAzP4Biotin” value [4] was “significantly higher”.
